Measurements from paper PMC9121386 (Journal of the American Chemical Society, 2022).

How the values were obtained:
Assay in all cases: cross-linking
[1] = target: uL16 (60S ribosomal subunit protein) (human (endogenous in H1299), UniProt P27635 1-214)
[2] = target: eS25 (40S ribosomal subunit protein) (human (endogenous in H1299), UniProt P62851 1-125)
[3] = target: uL2 (60S ribosomal subunit protein) (human (endogenous in H1299), UniProt P62917 1-257)
[4] = target: uL4 (60S ribosomal subunit protein) (human (endogenous in H1299), UniProt P36578 1-427)

Measured: binding result

B1: fragile histidine triad (Fhit), wild type (enzyme)
chain: not shown
binds: all assays above
